These results are taken from publication PMC5062617, “Nop9 is a PUF-like protein that prevents premature cleavage to correctly process pre-18S rRNA”.

A word on the Kd: it is a measure of binding affinity in units of concentration.

Holding throughout (experiment): EMSA; EMSA: 10 mM HEPES, 150 mM NaCl, 0.01% Tween-20, 0.1 mg/ml BSA, 1 mM TCEP, 4 °C, 40 min; RNA <50 pM
In data set [1] the target is T1, Nop9 (46-645) (Saccharomyces cerevisiae, UniProt P47077 46-645).
T1 sequence: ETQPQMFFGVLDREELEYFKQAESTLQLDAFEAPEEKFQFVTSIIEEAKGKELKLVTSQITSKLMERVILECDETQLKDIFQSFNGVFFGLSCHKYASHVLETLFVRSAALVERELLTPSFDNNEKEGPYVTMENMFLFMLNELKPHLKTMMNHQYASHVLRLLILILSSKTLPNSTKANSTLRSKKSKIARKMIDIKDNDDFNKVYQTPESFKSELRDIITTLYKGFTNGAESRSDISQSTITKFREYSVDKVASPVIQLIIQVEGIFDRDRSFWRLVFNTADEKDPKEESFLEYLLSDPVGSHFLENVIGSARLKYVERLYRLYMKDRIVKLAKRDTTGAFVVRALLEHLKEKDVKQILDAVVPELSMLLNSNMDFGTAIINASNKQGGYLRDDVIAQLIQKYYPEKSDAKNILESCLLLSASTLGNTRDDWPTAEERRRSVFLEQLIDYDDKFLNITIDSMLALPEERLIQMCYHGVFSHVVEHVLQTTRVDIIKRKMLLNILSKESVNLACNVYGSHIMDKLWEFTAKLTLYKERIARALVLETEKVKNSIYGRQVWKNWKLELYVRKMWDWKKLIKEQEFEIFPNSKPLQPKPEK
The settings on record: protein: recombinant; tags: none (SUMO cleaved); label: 5' 32P; hairpin, 5' flank.

Data set [2] concerns the target T1, Nop9 (46-645). The settings on record: protein: recombinant, tags: none (SUMO cleaved), hairpin.
Data set [3] addresses T2, Nop9 full-length (Saccharomyces cerevisiae, UniProt P47077 1-666).
T2 sequence: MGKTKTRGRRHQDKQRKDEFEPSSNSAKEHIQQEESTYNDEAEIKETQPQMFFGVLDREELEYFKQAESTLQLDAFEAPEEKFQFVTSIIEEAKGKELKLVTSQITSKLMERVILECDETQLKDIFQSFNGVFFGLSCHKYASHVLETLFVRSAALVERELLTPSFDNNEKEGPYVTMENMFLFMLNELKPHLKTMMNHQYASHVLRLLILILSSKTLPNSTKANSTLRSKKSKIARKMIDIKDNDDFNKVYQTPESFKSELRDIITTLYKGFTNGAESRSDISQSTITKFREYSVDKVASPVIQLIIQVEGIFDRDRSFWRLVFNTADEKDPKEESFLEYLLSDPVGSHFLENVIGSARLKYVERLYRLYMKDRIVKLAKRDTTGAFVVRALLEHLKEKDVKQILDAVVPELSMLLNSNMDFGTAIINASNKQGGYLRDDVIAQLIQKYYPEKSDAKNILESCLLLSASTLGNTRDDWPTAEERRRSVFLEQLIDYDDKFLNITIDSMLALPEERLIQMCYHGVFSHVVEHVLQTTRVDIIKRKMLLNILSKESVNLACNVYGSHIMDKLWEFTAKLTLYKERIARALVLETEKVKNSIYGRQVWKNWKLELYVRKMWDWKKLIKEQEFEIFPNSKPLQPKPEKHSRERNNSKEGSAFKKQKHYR
To be noted: protein: recombinant; tags: none (SUMO cleaved); label: 5' 32P; hairpin, 5' flank.

Data set [4] deals with T1, Nop9 (46-645). To be noted: protein: recombinant; tags: none (SUMO cleaved); label: 5' 32P; hairpin, 5' flank. This is another data set of the same source.

Positions count from the first letter of the chain named. Names and notes keep the numbering of the source.

B1: V: U-G pairs at stem base (structured_RNA)
RNA: UUUAAUAAUUUUGAAAAUGGAUUUUUUUGUUUUAUAGGACAAUUAAAACCGUUUCGG
Consider B1, for which the binding signal in data set [1] is ~3 fold Kd vs A Δ5'1-6,Δ3'.

B2: Subdomain A Δ5'1-12, Δ3' (structured_RNA)
RNA: GGAAUUUUGAAAAUGGAUUUUUUUGUUUUAUAGGACAAUUAAAACCGUUUCAA
With B2, the equilibrium dissociation constant (Kd) in data set [2] (label: 5' 32P, 5' flank) was 18.2 ± 1.9 nM.

B3: Subdomain A Δ5'1-6, Δ3' (structured_RNA)
RNA: GGUUUAAUAAUUUUGAAAAUGGAUUUUUUUGUUUUAUAGGACAAUUAAAACCGUUUCAA
For B3, the Kd is 10.1 ± 1 nM in data set [3] and 11.8 ± 0.4 nM in data set [2] (label: 5' 32P, 5' flank).

B4: III: UU(17-18)GC, AA(205-206)GC (structured_RNA)
RNA: B3 RNA with U13G, U14C, A58G, A59C
Take B4: in data set [4], the binding signal was ~4 fold Kd vs A Δ5'1-6,Δ3'.

B5: U16A (structured_RNA)
RNA: B3 RNA with U12A
On to B5, for which, in data set [2] (label: 5' 32P, 5' flank), the Kd is 62.3 ± 4.9 nM.

B6: I: UUU(16-18)GGC, AA(205-206)GC (structured_RNA)
RNA: B3 RNA with U12G, U13G, U14C, A58G, A59C
On to B6, for which the Kd in data set [2] (label: 5' 32P, 5' flank) turned out to be 103 ± 12 nM.

B7: UUU(7-9)GGG, A Δ5'1-6, Δ3' (structured_RNA)
RNA: B3 RNA with U3G, U4G, U5G
For B7, in data set [2] (label: 5' 32P, 5' flank), the Kd came out at 6.6 ± 0.3 nM.

B8: AAU(10-12)CCC, A Δ5'1-6, Δ3' (structured_RNA)
RNA: B3 RNA with A6C, A7C, U8C
With B8, the Kd in data set [2] (label: 5' 32P, 5' flank) worked out at 8.5 ± 0.6 nM.

B9: AAU(13-15)CCC, A Δ5'1-6, Δ3' (structured_RNA)
RNA: B3 RNA with A9C, A10C, U11C
As to B9, the dissociation constant Kd in data set [2] (label: 5' 32P, 5' flank) worked out at 27.6 ± 3.7 nM.

B10: II: U16G (structured_RNA)
RNA: B3 RNA with U12G
Regarding B10, in data set [2] (label: 5' 32P, 5' flank), the dissociation constant Kd came to 47.7 ± 1.8 nM.

B11: nt 20-22 mutant, pairing kept (structured_RNA)
RNA: B3 RNA with A16C, A17C, A18C, U54G, U55G, U56G
With B11, in data set [2] (label: 5' 32P, 5' flank), the binding result is reported as “binds”.

B12: IV: stem base strands reversed (UUG17-19AAC, CAA204-206GUU) (structured_RNA)
RNA: B3 RNA with U13A, U14A, G15C, C57G, A58U, A59U
B12: the binding result in data set [2] (label: 5' 32P, 5' flank) is listed as “binds”.

B13: ITS1 Subdomain A (1-38_184-212) (structured_RNA)
RNA: GGAAGAAAUUUAAUAAUUUUGAAAAUGGAUUUUUUUGUUUUAUAGGACAAUUAAAACCGUUUCAAUACAAC
With B13, the Kd in data set [2] (label: 5' 32P (EMSA), 5' and 3' single-stranded flanks) was 2.4 ± 0.3 nM.

B14: Subdomain A Δ3' (structured_RNA)
RNA: GGAAGAAAUUUAAUAAUUUUGAAAAUGGAUUUUUUUGUUUUAUAGGACAAUUAAAACCGUUUCAA
As for B14, in data set [2] (label: 5' 32P, 5' flank), the Kd came to 15.7 ± 2.6 nM.

B15: nt 27-30 mutant, pairing kept (structured_RNA)
RNA: GGUUUAAUAAUUUUGAAAAUGGGCGCUUUUGUUUUAUAGGACAAUUGCGCCCGUUUCAA
As to B15, the binding result in data set [2] (label: 5' 32P, 5' flank) was “binds”.

B16: ITS1 Subdomain C (77-140) (structured_RNA)
RNA: GGAGAGAUGGAGAGUCCAGCCGGGCCUGCGCUUAAGUGCGCGGUCUUGCUAGGCUUGUAAGUUUCU
Turning to B16, the Kd in data set [2] (label: 5' 32P) is 74.4 ± 4.1 nM.

B17: ITS1 Subdomain B (39-77_140-183) (structured_RNA)
RNA: GGUGGCAAGAGCAUGAGAGCUUUUACUGGGCAAGAAGACAAUUUCUUGCUAUUCCAAACGGUGAGAGAUUUCUGUGCUUUUGUUA
Turning to B17, in data set [2] (label: 5' 32P), the dissociation constant (Kd) stood at 105 ± 2.9 nM. In the case of GGUUUGAAAAUGGAUUUUUUUGUUUUAUAGGACAAUUAAAACCGUUUCAA (structured_RNA) [Subdomain A Δ5'1-15, Δ3'], the Kd in data set [2] (label: 5' 32P) was 346 ± 40 nM.
